Data on 1 molecule can be found in article PMC8113883, “Wild-type sTREM2 blocks Aβ aggregation and neurotoxicity, but the Alzheimer's R47H mutant increases Aβ aggregation” (The Journal of Biological Chemistry, 2021).

For this assay, the target named is T1, HiLyte Fluor 488-labeled Aβ42 oligomers (human, UniProt P05067 672-713, HiLyte Fluor 488 label (position not given)).
T1 construct: amyloid beta peptide 1-42 (Aβ42), human; cut product of the amyloid precursor protein; Oligomeric species of the 6 h aggregation mixture, told apart from monomers by photobleaching; also called oligomeric Aβ; Aβ oligomers; source: bought: AnaSpec; aggregated at 0.5 μM in PBS pH 7.4 for 6 h in a shaking incubator
In words: single-molecule TIRF two-color coincidence detection; HiLyte Fluor 488 Aβ aggregated 6 h (0.5 μM, PBS pH 7.4), dye-labeled sTREM2 added and imaged; monomers and oligomers told apart by photobleaching; chance coincidence subtracted. To be noted: both partners purified.

B1: dye-labeled wild-type sTREM2 (TREM2 ectodomain) for TIRF imaging (domain or fragment, human, UniProt Q9NZC2 19-143, looked up)
chain: HNTTVFQGVAGQSLQVSCPYDSMKHWGRRKAWCRQLGEKGPCQRVVSTHNLWLLSFLRRWNGSTAITDDTLGGTLTITLRNLQPHDAGLYQCQSLHGSEADTLRKVLVEVLADPLDHRDAGDLWF
modifications: TAMRA dye (results) or AF647 (methods), position not stated
notes: TREM2, human, residues 19-143 (soluble ectodomain); also called TAMRA-dye labeled sTREM2; AF647-TREM2; source: Freestyle 293-F, transfected (pHLSec), purified from conditioned medium (IMAC, gel filtration); dye-labeled
Turning to B1, the binding result is “binds”.
